Assay results from article PMC3173608, “Atomic Resolution Insights into Curli Fiber Biogenesis” (Structure(London, England:1993), 2011).
Values joined by “and” are separate entries in the source; they are usually repeats but may differ in a detail not shown here. Equal entries are not always repeated.

Target: the molecule itself
Assay: SEC + native gel or EMSA

B1: CsgG-6xHis (natural protein)
chain: CLTAPPKEAARPTLMPRAQSYKDLTHLPAPTGKIFVSVYNIQDETGQFKPYPASNFSTAVPQSATAMLVTALKDSRWFIPLERQGLQNLLNERKIIRAAQENGTVAINNRIPLQSLTAANIMVEGSIIGYESNVKSGGVGARYFGIGADTQYQLDQIAVNLRVVNVSTGEILSSVNTSKTILSYEVQAGVFRFIDYQRLLEGEVGYTSNEPVMLCLMSAIETGVIFLINDGIDRGLWDLQNKAERQNDILVKYRHMSVPPES
modifications: C16 becomes the lipidated N terminus of the mature protein (said of CsgG in general)
notes: also called recombinant CsgG-6xHis; protein-detergent complex; not shown: His6, C-terminal, kept
stoichiometry N: 7 protomers and 9 protomers
